{"source": "the DeepSol protein solubility set"}
{"experiment": "soluble on expression in E. coli; label from the status in PepcDB or PDB records"}
{"sequence": "MQMQVLTNTKFETVAFQWPAGFYSDGIHIGLRRHKKDFGWLFSKVPASAAGTYTTNQFQAAPTKLTKQMIDQGHQLQGLLLNSAIANSCTGEQGWQNALQEQAWLANKLNVAPNLIGVASTGLIGAQLPMDKIKNGLPQLTPTKSDAVTYAVLTTDQHPKTVCVQCELSGQLVTLTGFAKGSGMIHPKMATMLGFVTTDAQIDGPVLQDMLSTNVDQTFNQITVDGDTSTNDMVVTLANGLADNPSLQAGTTDYDIFNQALHYVLGQLAKQIAADGEGATKLVECNVVHAATTFDGQQIAKAIVGSNLVKAAIFGEDPNWGRIISTIGATDADIDVATVDIEMNGVLLVQQSLAVDFDMAAVQATLRDNQIMIDVDLHHGTASGQAWGCDLTYNYVKINASYHTLEHHHHHH", "soluble on expression in E. coli": "not soluble"}
{"sequence": "MELDDFDPEDKEILSWDINDVKLPQNVKTTDWFQEWPDSYVKHIYSSDDRNAQRHLSSWAMRNTNNHNSRILKKSCLGVVVCSRDCSTEEGRKIYLRPAICDKARQKQQRKSCPNCNGPLKLIPCRGHGGFPVTNFWRHDGRFIFFQSKGEHDHPRPETKLEAEARRAMKKVHM", "soluble on expression in E. coli": "soluble"}
{"sequence": "MAHHHHHHMVLLSVKGTTFPDEFVYECTAATAIYPDLARNLCHIQNSRHLVKLILLSARELLDEARCKKRVEVVDEGPGDGGANSYSALLTEYGAIIESTSARLKDRVVPVSLEEFDQYADRLRELTERLYPEECCVPEGGRSAAVDRLYQLHDDPNLDEDRRLAVYHCRAILDPQWKSHEQQKEDKAGLWFCGKLMEDTIARYSGKNEKSRLTVKVHPKDSVPPSTEPRISYDDQRALYERMRTRREEYKGLEESELRDRVVAQARGKVALTAPAAASPAMSMDLSRLRPICPKREEHEVN", "soluble on expression in E. coli": "not soluble"}
{"sequence": "MRVVAAHENLDFDALGSMVLAGRLYPGSVLALVGGVEGVLREVLPLLEDRLDLVPASEIPLDRVREVVLVDNARPERLGPLAALVGRVPFLVYDHHPRTPGDVPAVGGRVAPVGATVSLLVPLLLERGVALDPLEATLAYAGLWEDTGGFSFPSTTPEDLEAAGHLLRQGAEVARVRDWVRPRFGEEAREILSQLLKTAHLVERKGFRLLVARAREKGYVPALAPLAHTLLDLYEADGVLLALRLGGDTLLIARSKARLDVGRWLGALGGGGHARAAFARVRGKGRALARLLETLEAFLDPEPTLGQAMTAPVETLRPTSVREALRQLEERGYGAMPVVEPLGEGVRVLGLARRRDLRKAVRLGFGDHPVEGFLVRAVVLPPSTPLSQVEPRLREAGGRVLVGERAGEGWRLLGIYTRTDLYRSAPRPEPTLAERVLKALPSGVFRVVEALREAFPEGVYLVGGAVRDALLGRSGPDLDLAVGPGVEVARVAQFLVDRFGGSYGLHYAFGTARVRLPFGLVVDLAESREEVYPYPGALPEVRRAPIARDLERRDYSVNAMAVDLGGLAFLDPYGGLRDLEARLLRPLHPLAFVEDPTRVVRGARLAARLGFRFAEEVPRLLAPALLPEVVAGASRSRLREELLLTLEEEAFYRALALLAELGALKALYGLDLPPEAPFLRLRAEEGLGEARLLLLLFHQKDPLERAAWLALPGRLREGLALLLAASRGEEVPKEALGREPLRAAFLALFPEKEAWLKAERRVLMGRDLLKLGLKPGPKVGEILRRVAEARRRGEVRSFEEELALARKLLGDGTLALPE", "soluble on expression in E. coli": "soluble"}
{"sequence": "AHHHHHHGSGGLALEGRSIVFASGKGGTGKTTTVANIGVALAQFGKEVILIDADITMANLSLILGMEDIPITLHDVLAGEAELKDAIYEGPAGVKVIPGGLSLEKVKKARPERLRELIKEISQMGDFILIDAPAGLELTSVTALLIGKELIIVTNPEISAITDSLKTKLVAEKLGTLPLGAILNRVTSEKTELSKEEIEAILEVPVIGIVPEDPEVKRASAYGVPLVIKNPTSPAAIAYKQIAAKLAGIKWTPPEPESPVKRIFKALFGGKR", "soluble on expression in E. coli": "soluble"}
{"sequence": "MKCLVTGGNVKVLGKAVHSLSRIGDELYLEPLEDGLSLRTVNSSRSAYACFLFAPLFFQQYQAATPGQDLLRCKILMKSFLSVFRSLAMLEKTVEKCCISLNGRSSRLVVQLHCKFGVRKTHNLSFQDCESLQAVFDPASCPHMLRAPARVLGEAVLPFSPALAEVTLGIGRGRRVILRSYHEEEADSTAKAMVTEMCLGEEDFQQLQAQEGVAITFCLKEFRGLLSFAESANLNLSIHFDAPGRPAIFTIKDSLLDGHFVLATLS", "soluble on expression in E. coli": "soluble"}
{"sequence": "MSLIKLLALDMDGTLLNEAKEIPQAHITAIHKAIEKGVKLVLCTGRPLFGVLPYYKKLELDLQNEYIIVNNGCSTHQTSDWGLVDWQELSPADIEYLYDLAEKSDVQLTLFDESHYFVLGGKPNQVIENDAKLVFSDLTEISLEEATSGKFRMFQGMFLGTKEQTDDFEQRFAEELCQRFSGVRSQPVIYEAMPLGTTKATALSRLAEILKIDSSEIMAMGDANNDIEMLQFAGLGIAMGNASDYVKSLADAVTSSNEEDGVARAIEKYILEGHHHHHH", "soluble on expression in E. coli": "soluble"}
